The values that follow come from PMC8216847.

The target in this experiment is SARS-HCoV-2 S2 extra-cellular domain (SARS-CoV-2).

As to CV3-25 (antibody), the IC50 of neutralisation of SARS-CoV-2 pseudovirus on HEK293T-hACE2 cells is 0.34 µg/mL.
